According to US20260242478A1 (published 2026):
Where no end group is shown, it is not given here.

Key:
[1] = molecular target: T1, PSMA Fab (006 PSMA Fab); experiment: clonal phage ELISA on captured PSMA Fab pre-incubated with PSMA antigen as competitor, anti-M13-HRP detection;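 note: wells blocked with buffer plus PSMA antigen before phage addition, with blocking buffer alone as the no-competitor control, bound phage detected after washing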
T1 construct: also called Anti-PSMA Fab
Procedure: (§1) Clonal phage were harvested as crude supernatants and screened via standard ELISAs. […] Prior to the addition of clonal phage. wells were incubated with blocking buffer and PSMA antigen or blocking buffer alone. Without washing or aspirating, clonal phage supernatants were then added to the wells and incubated for a short time. Wells were then washed followed by detection of bound phage using a horse radish conjugated anti-M13 antibody.

[2] = molecular target: T1, PSMA Fab (006 PSMA Fab); experiment: clonal phage ELISA on biotinylated PSMA Fab captured on neutravidin plates, anti-M13-HRP detection;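 note: crude clonal phage supernatants added to wells preincubated with PSMA antigen or with blocking buffer only (no wash between), briefly incubated, then washed before detecting bound phage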
Procedure: as §1

[3] = molecular target: T2, PSMA Fab (006 PSMA Fab) (biotinylated (site not stated)); experiment: clonal phage ELISA on plate-captured biotinylated PSMA Fab pre-incubated with PSMA antigen as competitor, anti-M13 HRP detection
T2 construct: also called Anti-PSMA Fab

[4] = molecular target: T2, PSMA Fab (006 PSMA Fab); experiment: clonal phage ELISA on plate-captured biotinylated PSMA Fab, blocking buffer alone, anti-M13 HRP detection
Procedure: as §1

Binder | Phage binding ELISA signal, Anti-PSMA Fab with PSMA antigen [1] | Phage binding ELISA signal, Anti-PSMA Fab [2] | Phage binding ELISA signal, Anti-PSMA Fab in presence of PSMA [3] | Phage binding ELISA signal, Anti-PSMA Fab [4]
QVKYCEPQWMCAGL (cysteine pairing not given here; also: displayed on phage as fusion to pIII, junction not given here) [Phage-3823] | 0.0788 | 1.25 |  | 
EFKWCVPDWMCYGV (cysteine pairing not given here; also: displayed on phage as fusion to pIII, junction not given here) [Phage-3814] | 0.0589 | 1.29 |  | 
PQIWCVPTWMCAAS (cysteine pairing not given here; also: displayed on phage as fusion to pIII, junction not given here) [Phage-3821] | 0.0743 | 1.26 |  | 
PGMVCKPSWMCSHL [Phage-3825] | 0.107 | 1.25 |  | 
VHIMCVPPWMCERF [Phage-3819] | 0.0664 | 1.27 |  | 
VQHWCVPAWMCYGL [Phage-3826] | 0.107 | 1.24 |  | 
ENAKCSPAWMCVGF [Phage-3818] | 0.0752 | 1.27 |  | 
ATVVCSPPWMCTGF [Phage-3817] | 0.0662 | 1.27 |  | 
EAPYCRPSWMCAGF (cysteine pairing not given here; also: displayed on phage as fusion to pIII, junction not given here) [Phage-3824] | 0.0837 | 1.25 |  | 
PEIRCAPLWMCVGF [Phage-3829] |  |  | 0.0725 | 1.24
ASISCIPDWMCHGF [Phage-3815] | 0.0872 | 1.28 |  | 
IDRHCIPAWMCEQF [Phage-3828] |  |  | 0.0571 | 1.24
QEPVCRPAWMCSGF [Phage-3822] | 0.0764 | 1.26 |  | 
LDLSCVPAWMCTGF [Phage-3816] | 0.0963 | 1.28 |  | 
PPRACVPSWMCTGF [Phage-3830] |  |  | 0.0854 | 1.24
LLERCVPSWMCLGF [Phage-3820] | 0.102 | 1.26 |  | 
VDRMCVPPWMCDVL [Phage-3827] | 0.0859 | 1.24 |  | 
